Results on 1 protein are retold here after publication PMC4542195 (mBio, 2015).

The data set concerns the molecule itself. In words: SEC. (In general: In gel filtration, larger molecules generally elute earlier.)

Usually stoichiometry N stands for a count of units in the complex or per binding partner.

B1: VanTG catalytic (C-terminal cytoplasmic) domain, residues 339 to 712, as used in solution (size excl (domain or fragment)
chain: TADTDRAYLEINLNNLEHNVNTLQKAMSPKCELMAVVKAEAYGHGMYEVTTYFEPIGVFYLAVATIDEGIRLRKYGIFSEILILGYTSPSRAKELCKFELTQTLIDYRYLLLLNKQGYDIKAHIKIDTGMHRLGFSTEDKDKILAAFFLKHIKVAGIFTHLCAADSLEEKEVAFTNKPIGSFYKVLDWPKSSGLNIPKVNIQTSYGLWNIQSWNVIYQSGVALYGVLRSTNDKTKLETDLRACSFLKAKVVLIRKIKQGGSVGYSRAFTATRDSLIAILPIGYADGFPRNLSCGNSYVLIGGRQAPIVGKICMDQLAVDVTDIPNVKTGSIATLIGKDGKEEITAPMVAESAESITNELLSRMEHRLNIIRRA
B1: the “stoichiometry N” value worked out at 2.
